Where two headings read alike, the source gives them in different places.
Legend:
[1] = biological target: T1, Rabbit serum albumin (rabbit, UniProt P49065 25-608); experiment: SPR, SA on chip, 25 C
T1 construct: bought; immobilised on a CM5 chip by amine coupling; also called Rabbit SA

[2] = biological target: T2, human CNTF receptor (CNTFR) on IMR-32 cells (human, UniProt P26992 23-342); experiment: cell-based or functional assay
T2 sequence (looked up): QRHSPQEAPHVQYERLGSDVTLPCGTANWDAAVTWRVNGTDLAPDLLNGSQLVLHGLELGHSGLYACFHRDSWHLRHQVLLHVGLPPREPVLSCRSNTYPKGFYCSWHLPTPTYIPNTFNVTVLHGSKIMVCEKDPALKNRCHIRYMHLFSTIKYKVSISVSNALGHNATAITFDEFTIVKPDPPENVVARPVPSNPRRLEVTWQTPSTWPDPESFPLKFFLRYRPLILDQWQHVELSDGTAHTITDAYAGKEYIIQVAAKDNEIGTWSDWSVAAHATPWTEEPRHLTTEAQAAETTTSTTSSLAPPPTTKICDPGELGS

[3] = biological target: T3, Human serum albumin (human, UniProt P02768 25-609); experiment: SPR, SA on chip, 1:1 fit, 25 C
T3 construct: bought; immobilised on a CM5 chip by amine coupling; also called Human SA

[4] = biological target: T4, Cynomolgus monkey serum albumin (cynomolgus monkey, UniProt A2V9Z4 25-608); experiment: SPR, SA on chip, 1:1 fit, 25 C
T4 construct: bought; immobilised on a CM5 chip by amine coupling; also called Cyno SA

[5] = biological target: T5, Mouse serum albumin (mouse, UniProt P07724 25-608); experiment: SPR, SA on chip, 1:1 fit, 25 C
T5 construct: bought; immobilised on a CM5 chip by amine coupling; also called Mouse SA

[6] = biological target: T6, Rat serum albumin (rat, UniProt P02770 25-608); experiment: SPR, SA on chip, 1:1 fit, 25 C
T6 construct: bought; immobilised on a CM5 chip by amine coupling; also called Rat SA

[7] = biological target: T7, Pig serum albumin (pig, UniProt P08835 25-607); experiment: SPR, SA on chip, 1:1 fit, 25 C
T7 construct: bought; immobilised on a CM5 chip by amine coupling; also called Pig SA

[8] = biological target: T8, Dog serum albumin (dog, UniProt P49822 25-608); experiment: SPR, SA on chip, 1:1 fit, 25 C
T8 construct: bought; immobilised on a CM5 chip by amine coupling; also called Dog SA

[9] = biological target: T9, Cow serum albumin (cow, UniProt P02769 25-607); experiment: SPR, SA on chip, 1:1 fit, 25 C
T9 construct: bought; immobilised on a CM5 chip by amine coupling; also called Cow SA

[10] = biological target: T1, Rabbit serum albumin; experiment: SPR, SA on chip, 25 C; remark: listed apart in the source
[11] = biological target: T3, Human serum albumin; experiment: SPR, SA on chip, 1:1 fit, 25 C; remark: listed apart in the source
[12] = biological target: T4, Cynomolgus monkey serum albumin; experiment: SPR, SA on chip, 1:1 fit, 25 C; remark: listed apart in the source
[13] = biological target: T5, Mouse serum albumin; experiment: SPR, SA on chip, 1:1 fit, 25 C; remark: listed apart in the source
[14] = biological target: T6, Rat serum albumin; experiment: SPR, SA on chip, 1:1 fit, 25 C; remark: listed apart in the source
[15] = biological target: T7, Pig serum albumin; experiment: SPR, SA on chip, 1:1 fit, 25 C; remark: listed apart in the source
[16] = biological target: T8, Dog serum albumin; experiment: SPR, SA on chip, 1:1 fit, 25 C; remark: listed apart in the source
[17] = biological target: T9, Cow serum albumin; experiment: SPR, SA on chip, 1:1 fit, 25 C; remark: listed apart in the source
[18] = biological target: T1, Rabbit serum albumin; experiment: SPR, SA on chip, 25 C; remark: listed apart in the source
[19] = biological target: human ErbB4 receptor (NCBI Ref. Seq. No. NP_001036064.1) (human, UniProt Q15303 26-1308); experiment: cell-based or functional assay
[20] = biological target: T3, Human serum albumin; experiment: SPR, SA on chip, 1:1 fit, 25 C; remark: listed apart in the source
[21] = biological target: T4, Cynomolgus monkey serum albumin; experiment: SPR, SA on chip, 1:1 fit, 25 C; remark: listed apart in the source
[22] = biological target: T5, Mouse serum albumin; experiment: SPR, SA on chip, 1:1 fit, 25 C; remark: listed apart in the source
[23] = biological target: T6, Rat serum albumin; experiment: SPR, SA on chip, 1:1 fit, 25 C; remark: listed apart in the source
[24] = biological target: T7, Pig serum albumin; experiment: SPR, SA on chip, 1:1 fit, 25 C; remark: listed apart in the source
[25] = biological target: T8, Dog serum albumin; experiment: SPR, SA on chip, 1:1 fit, 25 C; remark: listed apart in the source
[26] = biological target: T9, Cow serum albumin; experiment: SPR, SA on chip, 1:1 fit, 25 C; remark: listed apart in the source
[27] = biological target: T3, Human serum albumin; experiment: SPR, SA on chip, VHH 300 nM, 25 C
[28] = biological target: T4, Cynomolgus monkey serum albumin; experiment: SPR, SA on chip, VHH 300 nM, 25 C
[29] = biological target: T5, Mouse serum albumin; experiment: SPR, SA on chip, VHH 300 nM, 25 C
[30] = biological target: T6, Rat serum albumin; experiment: SPR, SA on chip, VHH 300 nM, 25 C
[31] = biological target: T7, Pig serum albumin; experiment: SPR, SA on chip, VHH 300 nM, 25 C
[32] = biological target: T8, Dog serum albumin; experiment: SPR, SA on chip, VHH 300 nM, 25 C
[33] = biological target: T9, Cow serum albumin; experiment: SPR, SA on chip, VHH 300 nM, 25 C
[34] = biological target: T4, Cynomolgus monkey serum albumin; experiment: SPR, SA on chip, 25 C
[35] = biological target: T5, Mouse serum albumin; experiment: SPR, SA on chip, 25 C
[36] = biological target: T6, Rat serum albumin; experiment: SPR, SA on chip, 25 C
[37] = biological target: T7, Pig serum albumin; experiment: SPR, SA on chip, 25 C
[38] = biological target: T8, Dog serum albumin; experiment: SPR, SA on chip, 25 C
[39] = biological target: T9, Cow serum albumin; experiment: SPR, SA on chip, 25 C

B1: VHH-based fusion of Example 1, VHH fusion 1 (CNTF-(G4Q)5-MC6.1C22.43) (other)
chain: MAFTEHSPLTPHRRDLASRSIWLARKIRSDLTALTESYVKHQGLNKNINLDSADGMPVASTDRWSELTEAERLQENLQAYRTFHVLLARLLEDQQVHFTPTEGDFHQAIHTLLLQVAAFAYQIEELMILLEYKIPRNEADGMPINVGDGGLFEKKLWGLKVLQELSQWTVRSIHDLRFISSHQTGGGGGQGGGGQGGGGQGGGGQGGGGQEVQLLESGGGLVQPGGSLRLSCAASGRYIDETAVAWFRQAPGKEREFVAGIGGGVDITYYADSVKGRFTISRDNSKNTLYLQMNSLRPEDTAVYYCAARPGRPLITSKVADLYPYWGQGTLVTVSSPP
notes: also called Compound 1; CNTF-VHH fusion
[1]
  binding result: no binding (tested: up to 1000 nM)
[2]
  hCNTFR EC50 pM GeoMean (pSTAT3 in IMR-32 cells): 7.09 pM
[3]
  Kd: 3.2 nM
  koff: 0.00024 s⁻¹
  kon: 76000 M⁻¹ s⁻¹
[4]
  Kd: 13 nM
  koff: 0.00086 s⁻¹
  kon: 68000 M⁻¹ s⁻¹
[5]
  Kd: 100 nM
  koff: 0.0082 s⁻¹
  kon: 81000 M⁻¹ s⁻¹
[6]
  Kd: 83 nM
  koff: 0.0063 s⁻¹
  kon: 75000 M⁻¹ s⁻¹
[7]
  Kd: 190 nM
  koff: 0.011 s⁻¹
  kon: 58000 M⁻¹ s⁻¹
[8]
  Kd: 40 nM
  koff: 0.0032 s⁻¹
  kon: 79000 M⁻¹ s⁻¹
[9]
  Kd: 820 nM
  koff: 0.074 s⁻¹
  kon: 91000 M⁻¹ s⁻¹

B2: VHH-based fusion of Example 2, VHH fusion 2 (MC6.1C22-(G4Q)5-CNTF) (other)
chain: EVQLLESGGGLVQPGGSLRLSCAASGRYIDETAVAWFRQAPGKEREFVAGIGGGVDITYYADSVKGRFTISRDNSKNTLYLQMNSLRPEDTAVYYCAARPGRPLITSKVADLYPYWGQGTLVTVSSGGGGQGGGGQGGGGQGGGGQGGGGQMAFTEHSPLTPHRRDLASRSIWLARKIRSDLTALTESYVKHQGLNKNINLDSADGMPVASTDRWSELTEAERLQENLQAYRTFHVLLARLLEDQQVHFTPTEGDFHQAIHTLLLQVAAFAYQIEELMILLEYKIPRNEADGMPINVGDGGLFEKKLWGLKVLQELSQWTVRSIHDLRFISSHQTG
notes: also called Compound 2; VHH-CNTF fusion
[10]
  binding result: no binding (tested: up to 1000 nM)
[2]
  hCNTFR EC50 pM GeoMean (pSTAT3 in IMR-32 cells): 8.39 pM
[11]
  Kd: 0.58 nM
  koff: 0.00025 s⁻¹
  kon: 430000 M⁻¹ s⁻¹
[12]
  Kd: 1.2 nM
  koff: 0.0006 s⁻¹
  kon: 500000 M⁻¹ s⁻¹
[13]
  Kd: 8.8 nM
  koff: 0.0042 s⁻¹
  kon: 480000 M⁻¹ s⁻¹
[14]
  Kd: 6.1 nM
  koff: 0.003 s⁻¹
  kon: 490000 M⁻¹ s⁻¹
[15]
  Kd: 19 nM
  koff: 0.0057 s⁻¹
  kon: 300000 M⁻¹ s⁻¹
[16]
  Kd: 3.7 nM
  koff: 0.0017 s⁻¹
  kon: 460000 M⁻¹ s⁻¹
[17]
  Kd: 110 nM
  koff: 0.052 s⁻¹
  kon: 460000 M⁻¹ s⁻¹

B3: VHH-based fusion of Example 3, VHH fusion 3 (NRG1-(G4Q)5-MC6.1C22.43) (other)
chain: SHLVKCAEKEKTFCVNGGECFMVKDLSNPSRYLCKCPNEFTGDRCQNYVMASFYKHLGIEFMEAEELYQGGGGQGGGGQGGGGQGGGGQGGGGQEVQLLESGGGLVQPGGSLRLSCAASGRYIDETAVAWFRQAPGKEREFVAGIGGGVDITYYADSVKGRFTISRDNSKNTLYLQMNSLRPEDTAVYYCAARPGRPLITSKVADLYPYWGQGTLVTVSSPP
notes: also called Compound 3; NRG1-VHH fusion
[18]
  binding result: no binding (tested: up to 1000 nM)
[19]
  EC50 (ng/mL), PathHunter ErbB4/ErbB4 dimerization assay: 33.5 ng/mL
[20]
  Kd: 1.9 nM
  koff: 0.00023 s⁻¹
  kon: 120000 M⁻¹ s⁻¹
[21]
  Kd: 6.1 nM
  koff: 0.00087 s⁻¹
  kon: 140000 M⁻¹ s⁻¹
[22]
  Kd: 62 nM
  koff: 0.0088 s⁻¹
  kon: 140000 M⁻¹ s⁻¹
[23]
  Kd: 52 nM
  koff: 0.006 s⁻¹
  kon: 120000 M⁻¹ s⁻¹
[24]
  Kd: 130 nM
  koff: 0.012 s⁻¹
  kon: 93000 M⁻¹ s⁻¹
[25]
  Kd: 19 nM
  koff: 0.0032 s⁻¹
  kon: 170000 M⁻¹ s⁻¹
[26]
  Kd: 470 nM
  koff: 0.072 s⁻¹
  kon: 160000 M⁻¹ s⁻¹

B4: VHH moiety 8 (MC6.1C22-G26Y) (VHH)
VHH: EVQLLESGGGLVQPGGSLRLSCAASYRYIDETAVAWFRQAPGKEREFVAGIGGGVDITYYADSVKGRFTISRDNSKNTLYLQMNSLRPEDTAVYYCAARPGRPLITSKVADLYPYWGQGTLVTVSS
[27]
  koff: 0.001 s⁻¹
[28]
  koff: 0.003 s⁻¹
[29]
  koff: 0.0032 s⁻¹
[30]
  koff: 0.0075 s⁻¹
[31]
  koff: 0.0092 s⁻¹
[32]
  koff: 0.0022 s⁻¹
[33]
  koff: 0.015 s⁻¹

B5: VHH moiety 17 (MC6.1C22-R102K) (VHH)
VHH: EVQLLESGGGLVQPGGSLRLSCAASGRYIDETAVAWFRQAPGKEREFVAGIGGGVDITYYADSVKGRFTISRDNSKNTLYLQMNSLRPEDTAVYYCAARPGKPLITSKVADLYPYWGQGTLVTVSS
[27]
  koff: 0.0015 s⁻¹
[28]
  koff: 0.0022 s⁻¹
[29]
  koff: 0.01 s⁻¹
[30]
  koff: 0.0081 s⁻¹
[31]
  koff: 0.013 s⁻¹
[32]
  koff: 0.0082 s⁻¹
[33]
  koff: 0.015 s⁻¹

B6: VHH moiety 27 (MC6.1C22-S107E) (VHH)
VHH: EVQLLESGGGLVQPGGSLRLSCAASGRYIDETAVAWFRQAPGKEREFVAGIGGGVDITYYADSVKGRFTISRDNSKNTLYLQMNSLRPEDTAVYYCAARPGRPLITEKVADLYPYWGQGTLVTVSS
[34]
  binding result: no binding (tested: 300 nM)
[35]
  binding result: no binding (tested: 300 nM)
[36]
  binding result: no binding (tested: 300 nM)
[37]
  binding result: no binding (tested: 300 nM)
[38]
  binding result: no binding (tested: 300 nM)
[39]
  binding result: no binding (tested: 300 nM)
[27]
  koff: 0.014 s⁻¹
